The record followed here is patent US20100015126A1, “Methods of Binding of Cross-Beta Structures By Chaperones” (priority 2006, published 2010).

This experiment addresses T1, human BiP (Homo sapiens, UniProt P11021).
T1 construct: The human BiP gene except the signal peptide encoding region was obtained from Geneart (Germany); linker […]; made in house; host or cells: HEK 293E cells, transient transfection, PABC674 vector; secreted into the medium
Nature of the experiment: Competition ELISA: BiP binding to misfolded proteins under influence of crossbeta binding compounds. To be noted: for Influence on interaction of BiP with misfolded proteins comprising crossbeta structure (summary in words): BiP binding without compound set to 100%. The method, boiled down: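 Misfolded protein ligands were coated in pH 9.6 bicarbonate, typically at 5 μg/ml. A fixed sub-optimal BiP concentration was incubated for 1 h at room temperature with crossbeta-binding compound series, and bound BiP was detected by peroxidase antibodies with TMB read at 450 nm. Signals were background-subtracted, and binding without compound was set to 100%.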
(ELISA stands for enzyme-linked immunosorbent assay.)

[1] abbreviates: fixed sub-optimal BiP concentration, 10 mM ε-amino caproic acid.

T1 sequence (P11021 19-654): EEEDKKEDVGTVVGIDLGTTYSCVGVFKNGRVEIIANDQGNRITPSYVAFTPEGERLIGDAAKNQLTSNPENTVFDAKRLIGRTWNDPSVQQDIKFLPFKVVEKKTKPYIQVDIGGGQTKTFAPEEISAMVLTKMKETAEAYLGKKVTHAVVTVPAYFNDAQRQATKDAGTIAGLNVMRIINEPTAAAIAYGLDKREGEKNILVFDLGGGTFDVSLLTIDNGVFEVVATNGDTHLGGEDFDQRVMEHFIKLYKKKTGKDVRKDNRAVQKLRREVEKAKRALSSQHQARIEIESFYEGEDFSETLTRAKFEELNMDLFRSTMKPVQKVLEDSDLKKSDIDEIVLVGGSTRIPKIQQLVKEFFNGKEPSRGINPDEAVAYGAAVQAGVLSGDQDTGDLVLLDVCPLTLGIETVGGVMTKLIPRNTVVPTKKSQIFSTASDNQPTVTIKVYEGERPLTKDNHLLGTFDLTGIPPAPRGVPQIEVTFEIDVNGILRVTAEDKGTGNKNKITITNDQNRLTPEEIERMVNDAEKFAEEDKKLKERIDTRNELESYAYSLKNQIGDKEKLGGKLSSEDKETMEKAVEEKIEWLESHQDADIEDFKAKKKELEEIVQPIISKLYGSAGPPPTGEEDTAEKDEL

As to GSNKGAIIGLM [6BB6, Human Aβ (25-35)], under setting [1], the “Influence of K2P tPA on interaction of BiP with misfolded protein” value is “−” and the “Influence of tPA on interaction of BiP with misfolded protein” value was “↓ (a ↓ sign refers to inhibited abolished binding of BiP)”. The “Influence of IgIV on interaction of BiP with misfolded protein” value (fixed sub-optimal BiP concentration, IgIV Octagam series) is given as “↓ (a ↓ sign refers to inhibited abolished binding of BiP)”. In addition, the “Influence of Congo red on interaction of BiP with misfolded protein” value (fixed sub-optimal BiP concentration, concentration series of Congo red) is on record as “↓ (a ↓ sign refers to inhibited abolished binding of BiP)”. Also, the “Influence of ThS on interaction of BiP with misfolded protein” value (fixed sub-optimal BiP concentration, concentration series of ThS) is recorded as “−”.

Turning to `Nc1c(/N=N/c2ccc(-c3ccc(/N=N/c4cc(S(=O)(=O)O)c5ccccc5c4N)cc3)cc2)cc(S(=O)(=O)O)c2ccccc12` [Congo red], the “Influence on interaction of BiP with misfolded proteins comprising crossbeta structure (summary in words)” value is on record as “general inhibitors”.

As to `Cc1ccc2c(c1)sc(-c1ccc(N(C)C)cc1)[n+]2C.[Cl-]` [ThT, Thioflavin T], the “Influence on interaction of BiP with misfolded proteins comprising crossbeta structure (summary in words)” value was “can either potentiate BiP binding, or inhibit”.
